Results published in patent US5663067.

Columns and labels:
[1] = test system: T1, SapI restriction endonuclease (recombinant) (Saccharopolyspora sp.); experiment: cleavage_in_vitro; conditions: supernatant of lysate assayed on lambda DNA; purified enzyme also assayed on lambda DNA
T1 sequence: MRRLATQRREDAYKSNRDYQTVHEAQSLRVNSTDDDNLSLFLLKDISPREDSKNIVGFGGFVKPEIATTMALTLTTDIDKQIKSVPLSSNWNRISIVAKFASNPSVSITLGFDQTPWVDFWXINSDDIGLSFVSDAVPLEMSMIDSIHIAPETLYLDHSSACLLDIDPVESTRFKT

[2] = test system: T2, SapI M2 methylase (Saccharopolyspora sp.); experiment: cell_activity; conditions: M1 and M2 co-expressed in E. coli from pACYC184-SapIM1-M2; SapI site protection
T2 sequence: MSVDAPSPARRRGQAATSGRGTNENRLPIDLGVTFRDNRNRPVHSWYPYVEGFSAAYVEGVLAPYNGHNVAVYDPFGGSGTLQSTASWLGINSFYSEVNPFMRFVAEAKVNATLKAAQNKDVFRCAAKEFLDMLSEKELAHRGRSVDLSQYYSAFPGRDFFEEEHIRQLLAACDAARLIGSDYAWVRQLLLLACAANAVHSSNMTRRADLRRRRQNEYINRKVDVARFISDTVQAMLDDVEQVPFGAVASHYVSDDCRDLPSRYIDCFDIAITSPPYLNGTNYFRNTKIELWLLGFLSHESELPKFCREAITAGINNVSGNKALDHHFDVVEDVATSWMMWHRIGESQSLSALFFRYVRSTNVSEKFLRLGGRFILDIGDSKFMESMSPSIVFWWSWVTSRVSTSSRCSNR

[3] = test system: T3, SapI M1 methylase (Saccharopolyspora sp.); experiment: cell_activity; conditions: M1 and M2 co-expressed in E. coli from pACYC184-SapIM1-M2; SapI site protection
T3 sequence: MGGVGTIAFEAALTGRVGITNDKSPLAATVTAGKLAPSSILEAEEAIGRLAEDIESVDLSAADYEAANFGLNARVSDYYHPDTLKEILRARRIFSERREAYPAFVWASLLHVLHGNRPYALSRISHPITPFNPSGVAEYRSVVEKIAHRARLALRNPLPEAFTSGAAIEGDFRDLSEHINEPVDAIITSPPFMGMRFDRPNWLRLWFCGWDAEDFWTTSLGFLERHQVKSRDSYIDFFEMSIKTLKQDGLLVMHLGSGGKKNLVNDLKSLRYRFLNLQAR

Row | Substance | activity (units per g wet cells) [1] | activity (% of DNA resistant to SapI) [2] | activity (% of DNA resistant to SapI) [3]
1 | lambda DNA | 20000 |  | 
2 | pUC19 plasmid DNA (one SapI site) |  | 70 | 70
